B1: Protein ORD (Drosophila melanogaster (Fruit fly)), Q24434 (parent)
chain: MYGETTLNKNHVIKFIKLKINNCLGCDEVEINFSKADNVHIIIYSLVTDMAKDLPAVTPVAQAILLLCSLTYPDSDSLETIPQLKIGKGSVSMSFKVYPVNKEEETEPESESDLDEGPSTSKQALERMVQRAERKAKEASTRNVHSKGIYVNVERRFDMYFALDTVSYYINGGKRQSCPLPEFHAKFFVRPQHSINLLRQLHEKCSGNWLKVIQSDGDGDAFKKFKDPDSPFETFVKLFESNPIKPNDMMGKLAKTCLHVNEAVRLTEREFILEVFNQVRHIFEYITAQEYTVWFLVPCLGDKDQLRSKTLEDFDLTKVRTSIRRAGDTSNIWWDHTDHNIKDILLVAFQLDLATHVNQSVLVISHLETLAEFSTMQYVTAFFMNDFYAKKNTEPKWICHRYLERIIDVALFLGVIVIIEYPSAFTLLQEGRHLIKCFQKENADSSRTSQWEIFEDVVKENESDLEFLKEAVGKVQQNV
partner: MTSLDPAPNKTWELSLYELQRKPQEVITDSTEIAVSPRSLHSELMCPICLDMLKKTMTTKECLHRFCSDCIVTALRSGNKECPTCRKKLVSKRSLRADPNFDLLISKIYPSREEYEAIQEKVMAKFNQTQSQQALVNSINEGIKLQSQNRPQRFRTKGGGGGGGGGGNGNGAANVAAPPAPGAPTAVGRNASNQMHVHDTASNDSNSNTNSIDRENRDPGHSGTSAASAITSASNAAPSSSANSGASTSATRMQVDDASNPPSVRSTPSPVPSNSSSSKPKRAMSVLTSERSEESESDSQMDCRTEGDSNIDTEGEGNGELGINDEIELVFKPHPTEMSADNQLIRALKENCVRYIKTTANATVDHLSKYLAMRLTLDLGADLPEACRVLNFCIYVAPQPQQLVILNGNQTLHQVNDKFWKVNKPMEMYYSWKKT

Variants of: B1
Conditions: with ring1_drome Sce

| effect of a mutation on the interaction | Variant |
| --- | --- |
| decreasing interaction | MYGETTLNKNHVIKFIKLKINNCLGCDEVEINFSKADNVHIIIYSLVTDMAKDLPAVTPVAQAILLLCSLTYPDSDSLETIPQLKIGKGSVSMSFKVYPVNKEEETEPESESDLDEGPSTSKQALERMVQRAERKAKEASTRNVHSKGIYVNVERRFDMYFALDTVSYYINGGKRQSCPLPEFHAKFFVRPQHSINLLRQLHEKCSGNWLKVIQSDGDGDAFKKFKDPDSPFETFVKLFESNPIKPNDMMGKLAKTCLHVNEAVRLTEREFILEVFNQVRHIFEYITAQEYTVWFLVPCLGDKDQLRSKTLEDFDLTKVRTSIRRAGDTSNIWWDHTDHNIKDILLVAFQLDLATHVNQSVLVISHLETLAEFSTMQYVTAFFMNDFYAKKNTEPKWICHRYLERIIDVALFLGVIDIIEYPSAFTLLQEGRHLIKCFQKENADSSRTSQWEIFEDVVKENESDLEFLKEAVGKVQQNV [V417D] |

Source: IntAct's records for PubMed 14669021
